# Results taken from the domain aggregation screens of Martell et al. (2025).
# Assay: soluble fraction after stress (log2 fold change); higher = more stays soluble; pooled small domains, quantitative proteomics
# Conditions: stress: 75 degC
# 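Further: 20 min heating vs room temperature control held 20 min.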
row,Sequence,soluble fraction (log2)
1,HMSQDEKITNYIYEGNKNTQTEAFVEAEKSYRKALSLSPEKPEALYNLGNTHFLDKQYDEASQRFF,0.0479
2,HMFDNPLSERDKEILNHISMGKSNKEIANQVGLAEQTIKNTISVILDKTFTSNRAQAASMATKNKW,0.666
3,HMANADVVLVDLDKEYTVDAAKFHSVVKHSPFNGFAVKGAPVLTIVRGTVVAENGEVVGQPGHSKMVRP,0.108
4,HMSLPAYIKISEVIARRINAGQILAGDRLPNERTMAVEFGVAVGTLRKALYHLQVRGLVTRKHGSGNYINK,-0.221
5,HMAIPTTDSDKATDAQIKQIKLLGDIHPNLKLDAWLERNHVTWETLTREQAGNMMKAIKNKYGD,-0.105
6,HMDGTVRGKTTFQELLDWGVPQERIEAVLGGPIPAPGVVIKDYVTAQGKEFSAVRDALQAEVDAVLK,0.144
7,HMIKIEDILNVESVELSDSEYKKFLNGILINVKNLENGWAKVYSGNEFKGFGIVDKNLLKRKIVID,-1.49
8,HMDSSITLMRMYIPKGHNWENKLISDVSMPTNSLALMIKRNGTTIIPKGDTMILAKDTLILSVPSYEPS,-2.6
9,HMGIAEGSSVFVRVLAAEDGGRYTVSFAGRRFSVLSRQALGIGSAFRADVKVEKGQVLLVPR,-2.95
10,HMQHYQFEVDEASSKKRLDVFLSENLPEISRSRLKKLIDEKRVTVNEMSRPAGYKVRVKEKIEFHIPPL,-0.718
11,HMATHWHITPNPNNGKFLISGLMQDDSFHLMDASGQWLRQLRTVNQELDLDLQPGVYFLKDNSGSVMKFVV,-1.13
12,HMPPFDDILAEYYEPLYRHVRRMVVSHDDAKDVMQEAMLRIFQGLDGLKDPSAVRTWVWRIATNEALRH,-0.0914
13,HMQQTAEDWKNKGDSLTAQSEYVEAIAAYDEAIRLDPNYAPAWSNKGNALKNLGEYYKAIQAYDEAIRL,0.104
14,HMGDITALMPGKVIQIIVKEGQEIKVGDPLIVIESMKMENTISSEVNGTIKSINIQIDDNVQFDQVLFTV,-2.54
15,HMIMDQTILRKQRELTDRLNRYRNEYYNHNKPSVSDEVYDRLFDELQSLEKETGVQMANSPTTTVG,-0.0853
16,HMIPEILNGYTKWGDDEPFEDHAGPFYMKMMPSTGRHLSAFIPEQRHMNGGGFLHGGMLMSFADYALFVI,0.244
17,HMNAESLIGDRAVVTVAIERNKRGRVDVTGQDWAATTRDGEEIKVGQEVLVVGISGVALIVEER,-1.1
18,HMENISVESKMKLLLKSLKTRDFISLPELVLKGESKLAISVILVAALELNRKGYIEVVQAEQFGEIYFKNT,-0.173
19,HMHNISQTGRRIAGMTQERWAEALDISVESVRLYESGRGMPSDDVATRMVEVSGAPVLGYWH,-0.458
20,HMAGTGKVNTGVANVRSGPGTNYEISGKIYADTEVSILETSNGWYKIKFGNLTGWMSGTVLDIK,-0.902
21,HMNKEHINLDSSKFLSLLNKTKISMSNDETRHYLNGIYIHPTVSNKSSYLTGVATDSHRLSSSSIPVD,-0.366
22,HMNADLDIQNVNGNTPLWEAVMRYRGDGFFIEQLLKNGANPDIKNNYGVSPKSLARTIANYDVRRFFN,-0.281
23,HMPLRPNQRQFIHLMVYQGLDRNEAYAQANNKVLTEENYESIRTAAAKTFYTPHVNNYYHALMEEIRDRE,-0.471
24,HMAPQAETLLRQVMALPSKDRAVLYLHYYEGFSTREVGDMLHISQSAVTTRLLRARKKLKEIL,-0.122
25,HMTETTTVPKLKGLTKDEAEDAAKSSKIKLEFIDEISKTVEAGVIIKQEKDEGETVNAGDTVKVYVSIGT,0.472
26,HMNREIVVYITGAVDNPGLYRLPLDSRLDDVLKLAVLSTNADREVLNPAQKLKDGQKIVVPYIVE,-0.49

row,Sequence,soluble fraction (log2)
1,HMQMEISQRIKLERQTLKWTQEELADKIFVSKRTISNWETGRTVPDIESVLRLAKVFHVSLEDLLL,-4.46
2,HMNATLEQLTQREREIAVLMAEGLTNAQIGSRLNVSMASVKAHLSHIFTKLGVDNRVSAAMMVL,-0.868
3,HMSAGKKSFTNSEFRRFLDALGEGLIVKHKKLGEGVVVEIRGDKAVIQFGDEQRLYELKTLYEYDLLR,-0.628
4,HMGVGVTAPLAGNIFKIVKQPGDVVASGDVVLILEAMKMETEIRAAAGGTVKQVLVREGDAVDAGHTLMTL,-1.38
5,HMIIVMSANANAREISEVIARIRAMGYDVHLSHGKERTIIGVIGRGTPIDREQLSLMSGVQQVMPV,-2.44
6,HMDFYVILGVDRAASLSDVKRAYRRLARKHHPDINPGDPESDAFFMRVTEAYETLVDPDRRQEYDEHG,-0.75
7,HMTISGSDLKAQREALNIPLERIAKETRIRLSILQDLEDEEYSELSSSAQTKGFLRLYADYLSSHKQRLG,-1.06
8,HMGESFEELAREISDDTGSKTEGGETGLFPRGVMAPQFEEAAFLLKVGDISEPIRTKFGYHIIKLKEIKP,-0.0117
9,HMETSLVIQIDGAVNSPGIYQVTPGTRIFEALELAGGVREDAQTEALNLALPVYDGQRISIPSSFA,-0.153
10,HMSVKTIRKTEFAKRLYSLMLEKNWNQSDLARASGMGRDSVSQYIRANNTPSPQNLKKLAEALGVEPVELY,-2.05
11,HMSTALTPLTTREREVLALMAEGLTNSGIAARLVLTDRTVETHVSRILHKLGLGETTTNEHRRVLAVLRYL,-1.72
12,HMGTYTSALDGIKGLGKKRKMLLLNTYKSIDVLKSVPLTELSQLIPREVAEALLTKLNRVDD,-1.18
13,HMLPNIKSEMEILGDNAKARLEAAELWSKKYLSNEAYDTMSKLATTADGVKAIEEIMNITKS,0.0754
14,HMEKPTRNKLVEIIIQNKNVTTEQMANLLNISRRAVAKHIKKLQEEGIIRRIGPDFGGHWEIVK,-0.294
15,HMDRMMQPETWGRVYQWITDDPQVPDREEVLTLIKYHYGDFGKLMKLLHRLNEGKAWTYLSEHIFPRM,-0.254
16,HMSTFTPYLVKVTTSVLNIRKGAGTNYGTNGSIRDMGTYTIVAEADGQGASKWGKLKSGAGWISLDYTKK,-2.33
17,HMAVKYTKDDFLYTEKPYEAIYDYKNDPFMHNLKIEQMAQQAAEVGVKTFKGLYKNYVKMREMQRGANV,0.0263
18,HMSDDLIILGYSMLNNALKAFHIDPDSIKKKHWDKLAQDYHLKNKNQILTDIALGKRVNIMVAHQLTTIMD,-0.738
19,HMANLLNLREIPVANIRPELTMFLIPGENITQAFQTIRDQVVFTNKRLIVANVQGLTGKKVSYTSYPY,-0.38
20,HMNNLSEELNVTFPRTRDQLLNILHYVQHKYGYISKVSMQEIGNHIKMPVSEIYGTVTSYSEFKI,-2.25
21,HMVSQKPKERELWFREQLELAGLRLDPHAISAINETLGNDTGRFPGIIDTLLSTYGAGKKLSYDDVVMFL,-0.638
22,HMERYFVLVIYDIVDNKKRLKLSKYLLGYGIRVQKSAFEMMITKEKYNKLIKELPTYIEEGEDSIRLY,0.0566
23,HMKRGDAYASEMIARLKEAHLIVMEGTLYPLLTRLKNDGLLSYRWEESTQGPPRKYYSITPVG,0.151
24,HMAMNLQETVLMQLRDLILRGTFEPGQRLSEQPLAERLKASRTPVRSALVTLEQEGLIEASETGKYLVRQ,-0.821
25,HMSSIHQDAKQQLHEYIRTYIQPLMRAGKQVTVWDIIGHVTIRKPKLVQKIGTQQLINMVQDLLE,-0.624
26,HMENDPYEILGIARSASDDEIKAKYRALTRENHPDILMAKGVPQEFIDLANEKMAVINAAYDKIEKER,0.407

row,Sequence,soluble fraction (log2)
1,HMSSSKVAISQFEELVDQGQVREVVIEGSTATGTTAAGRRFAAEIPPGGMELFLSKLDDAGTTYEYSPP,0.822
2,HMRAGHDFEALKHIESSLDKHLTDEGIKIKSEKRGAIVARWYQSHVEGREVTDDDVHTWIELFF,-2.82
3,HMGVSAGQVRGLIRNLIAGEDKSKPLSDLALERELEKREIRISRRTVAKYRAELGIPNSDQRRYLP,-1.68
4,HMKGLDAAVVDLFKSKGASIVFAGNRLSLSGEVADQATKDELLAKAKAILASLGASVSLDDKLMVKGAKAS,0.0761
5,HMFSQDQIFLRSGEKIDARVIEVTPEFIKYKSKANPEGPLYSKKITDVLLITYANGTTEVYE,-0.764
6,HMRKMNDAVFYVEMSRPKRGYYTATYKLITRNPNSLPEHEITRRFFQMLEETIRKNPPYYLWTH,-0.527
7,HMEKKPYGEMHNVMLTDEELEKLRHDYPAHFAEYIQRLSLHIDAKGARYKSHYAVIRKWLIADGVKA,-2.36
8,HMTGGIWVQIQGAVERPGVYSLPRDSRLKDLLEAAGGFGRDADTEKVNQAARLEDGAMYRVPRQGEG,0.49
9,HMGLYPYSGTPADNQEANERRIFDIYSTHLERIFSDFSGATLRTKRLVLRLMQELVHSDPVRMAGILDEL,0.0962
10,HMIAVLKQGVSKQQVENLITWFRSRGLDVHISEGKFQTIIGLIGDTSKVDIDLLNGLEIIESVKRI,-0.344
11,HMAGITLHAEEGRVRIRSQSEGLVKVLDAMGREQASWPLRSKGWWFFLTEGWAPGTYFVKTESGETQRFLV,0.274
12,HMDAMQAFPNPTVDEIHFVTPTTGRVYNAHGQLVMVLKNAQLVNVRQWSAGQYVIVREDGYAVRWIK,-1.3
13,HMKKVRIPDDPEEAYRKALKTAMNIVGYKDNTEFTLREKLSERGYSGETVDAVAEFMKSKGYV,-0.0562
14,HMGLASEVKTEDVLNEEKYDFEPDLIGNNNEAIYQNKQTGSYVLFDRNQNKVTKVLSAGEVLNHSKYNE,-0.138
15,HMPEMAIRTLRLRNQRGAAVAAEWSRITASLLELRQVEFVNPVDQLIVLKGPEPWAGVAEELVRQLDV,-2.55
16,HMTGEDIKKVILREYAREKSLLSIFHELSKVNSNVTLEVIKDIITNIDKLPNDLLQYFKEESSFYQKNKN,-1.46
17,HMEQSLNTYSIRTVKESLFLAETKNLNKIEKLVEGIEGRLTLSEALVLFSDKLNAMSVLSHVNANT,-0.154
18,HMPFDWSAFDWKGWADEALAIIKTANQDQMNKWTEDNEKIIVQAETAAPDIYKTVGDEYDKKMESFN,0.0145
19,HMYGSLGEYELAAVQWIYGKGKITTRELSSLIGKGLTLSSKTLRGLAAKGILEWHGNSKNDPSQFYSLP,-2.42
20,HMKPFSLESYKAFVVKRLGLFPETSSAQMHDWLKEEYPDFPLITPRTVYNFVMKIRQDYGIAKV,-3.43
21,HMPLTAASLQTYLRGVDYPASKQDLIAHARKSDAPEDAITVLEQYSEQTYRSAADVSAEFGS,0.109
22,HMNNQIFGLKFRQLRKQQHITLAKAAAGITSRQSLGNWETGKGELAFEKVLLLLKKINVQPIDFLESSIS,-3.9
23,HMLDEKFLSELMLALLRNHRRGLRAEVLLHKVRSNMELDGYKSLLVGVGRMEMWELAREIIDFVKAEG,-4.4
24,HMKEQLITVYVSGAVARPGLYELPAGIRAQEAVEAAGGFTEAANHEKVNLAKKLKDGSQVNVPALK,-0.122
25,HMDNLKELDEILETYGKKKGYLITILQKAQDAYGYISIDIMNRISEFTGIKVAKIYGVATFYAQFRL,0.0785
